Where no end group is shown, it is not given here. [ ]: non-standard residue; d: D form. pGlu = O=C1CC[C@@H](C(=O)O)N1
T1: pyroE Aβ3-16-biotin polypeptide (human, also: biotin, position not given here)
T1 peptide: [pGlu]FRHDSGYEVHHQK


Columns and labels:
Aβ1-42 protofibril [1] = molecular target: T2, Aβ1-42 protofibril (human); assay: SPR (Biacore T200), protofibril on CM5 chip, antibody as analyte
T2 construct: also called amyloid protofibril

pyroE Aβ3-42 peptide = molecular target: T3, pyroE Aβ3-42 peptide (human, pyroglutamate derived from glutamic acid at the third amino acid position of Aβ (N-terminus of the peptide)); assay: graded binding, chimeric antibody (assay not named; ELISA in Example 1)
T3 construct: Synthetic peptide; It lacks the first two N-terminal residues of Aβ; also called pyroglutamate-modified β-amyloid

Aβ1-42 monomer = molecular target: T4, Aβ1-42 monomer (human); assay: as above
T4 construct: Preparation of the monomer is not described

Aβ1-42 protofibril [2] = molecular target: T2, Aβ1-42 protofibril; assay: as above
[3] = molecular target: T1, pyroE Aβ3-16-biotin polypeptide; assay: SPR (Biacore T200), biotinylated peptide on SA chip, antibody as analyte; antigen channel not given

T2 sequence (peptide, as listed by the source): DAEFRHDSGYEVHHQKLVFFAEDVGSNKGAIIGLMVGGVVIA
T3 sequence (peptide, as listed by the source): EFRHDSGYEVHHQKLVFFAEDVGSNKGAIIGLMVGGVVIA

Row | Binder | Kd (Aβ1-42 protofibril [1]) [pM] | koff (Aβ1-42 protofibril [1]) [s⁻¹] | kon (Aβ1-42 protofibril [1]) [M⁻¹ s⁻¹] | binding result (pyroE Aβ3-42 peptide) | binding result (Aβ1-42 monomer) | binding result (Aβ1-42 protofibril [2]) | Kd [3] [pM] | koff [3] [s⁻¹] | kon [3] [M⁻¹ s⁻¹]
1 | 6B5 (antibody, V domains shown, Chimeric (parent) antibody; the constant region of the chimeric form is not specified) VH: EVQLQQSGAELVKPGASVKLSCKASGYTFTTYWMHWVKQRPGQGLEWIGEIDPSDSYTNYNQKFKGKATLTVDKSSSTAYMQLSSLTSEDSAVYYCARSFHGNFFVYWGQGTLVTVSA VL: QIVLTQSPAIMSASPGEKVTITCSASSSVSYMHWFQQKPGTSPKLWIYSTSNLASGVPARFSGSGSGTSYSLTISRMEAEDAATYYCQQRSSYPLTFGAGTKLELK | 1710 | 0.00196 | 1.15e+06 | binds | binds |  |  |  | 
2 | 151N5 (antibody, V domains shown, Chimeric (parent) antibody; the constant region of the chimeric form is not specified) VH: EVQLVESGGGLVKPGGSLKLSCAASGFTFSDFYMYWVRQTPEKRLEWVATISDGGRYTYYPDRLKGRFTISRNIAKNNLYLQMSSLKSEDTAMYYCARGRSTMITTTRNYFALDYWGQGTSVTVSS VL: DIQMTQSSSSFSVSLGDRVTITCKASEDIYNRLAWYQQKPGDAPRLLISGAIRLETGVPSRFSGSGSGKDYTLSITSLQTEDGATYYCQQYWRTPLTFGAGIKLELK |  |  |  | binds |  |  | 291 | 0.000319 | 1.1e+06
3 | 200O1 (antibody, V domains shown, Chimeric (parent) antibody; the constant region of the chimeric form is not specified; also called 20001) VH: QVQLKESGPGLVAPSQSLSITCTVSGFSLSRYIVHWYRQPPGKGLEWLGMIWGGGRIDYNSALKSRLSISKDNSKSQVFLKMNSLQTDDTAMYYCARNFGENAEAYWGQGTLVTVSA VL: DIQMTQTTSSLSASLGDRVTITCRASQDINIYLNWYQQKPDGVVKLLIYYTSRLHSGVPSRFSGSGSGTDFSLTISNLEQEDIATYFCQQGHTLPYTFGGGTKLEIK |  |  |  | binds |  |  | 0.0716 | 5.44e-08 | 760000

More lines, now with the values ahead:

Row | Kd (Aβ1-42 protofibril [1]) [pM] | koff (Aβ1-42 protofibril [1]) [s⁻¹] | kon (Aβ1-42 protofibril [1]) [M⁻¹ s⁻¹] | binding result (pyroE Aβ3-42 peptide) | binding result (Aβ1-42 monomer) | binding result (Aβ1-42 protofibril [2]) | Kd [3] [pM] | koff [3] [s⁻¹] | kon [3] [M⁻¹ s⁻¹] | Binder
4 |  |  |  | binds | binds | binds |  |  |  | 11G10 (antibody, V domains shown, Chimeric antibody; the constant region of the chimeric form is not specified) VH: EVQLQQSGAEIVKPGASVKLSCKASGYTFTSYWMHWVKQRPGQGLEWIGEIDPSDSYTNYNQKFKGKATLTVDKSSSTAYMQLRSLTSEDSAVYYCARSFHGNLFVYWGQGTLVTVSA VL: QIVLTQSPAIMSASPGEKVTITCSASSSVSYMHWFQQKPGTSPKLWIYSTSNLATGVPARFSGSGSGTSYSLTISRMEAEDAATYYCQQRSSYPLTFGAGTKLEIK
5 |  |  |  | binds | binds | binds |  |  |  | 6C9 (antibody, V domains shown, Chimeric antibody; the constant region of the chimeric form is not specified) VH: QVQLQQSGAELVKPGASVKLSCKASGYTFTNYYVHWVKQRPGQGLEWIGEIDPSDSYSNYNQKFKGKATLTVDKSSSTAYMQLSSLTSEDSAVYYCARSFHGNFFVYWGQGTLVTVSA VL: QIVLTQSPAIMSASLGEEITLTCSASSSVSYMHWFQQKPGTSPKLWIYSTSNLASGVPARFSGSGSGTSYSLTISRMEAEDAATYYCQQRSSYPPTFGGGTKLEIK
